Starred links: 1 amine or outer side, 2 acyl side, 3 side chain; linkers in the order of their positions; H or OH if unused. Positions of bridges follow the written chain, without caps; N, C: chain ends. Non-standard residues stand in square brackets, D forms with d. Primed or numbered codes have the meaning given here. dTyr(4-OMe) = O-methyl-D-tyrosine (4-OMe), COc1ccc(C[C@@H](N[*:1])C(=O)[*:2])cc1; dTyr(4-OMe)″ = O-methyl-D-tyrosine, COc1ccc(C[C@@H](N[*:1])C(=O)[*:2])cc1; dDip = N[C@@H](C(=O)O)C(c1ccccc1)c1ccccc1; dPhe(4-Br) = N[C@H](Cc1ccc(Br)cc1)C(=O)O; d2Nal = N[C@H](Cc1ccc2ccccc2c1)C(=O)O; d(αMeF) = C[C@@](N)(Cc1ccccc1)C(=O)O; dNMeF = CN[C@H](Cc1ccccc1)C(=O)O; Tic = O=C(O)[C@@H]1Cc2ccccc2CN1; dTic = O=C(O)[C@H]1Cc2ccccc2CN1; Cit = NC(=O)NCCC[C@H](N)C(=O)O; Nle = CCCC[C@H](N)C(=O)O; Aib = CC(C)(N)C(=O)O
Assays:
Experiment in all cases: cell-based or functional assay
human MC3R = human MC3R (human, UniProt P41968 1-323)
human MC4R receptor [1] = target: T1, human MC4R receptor (human, UniProt P32245 1-332)
human MC4R receptor [2] = target: T1, human MC4R receptor; remark: listed apart in the source

T1 sequence (P32245 whole entry): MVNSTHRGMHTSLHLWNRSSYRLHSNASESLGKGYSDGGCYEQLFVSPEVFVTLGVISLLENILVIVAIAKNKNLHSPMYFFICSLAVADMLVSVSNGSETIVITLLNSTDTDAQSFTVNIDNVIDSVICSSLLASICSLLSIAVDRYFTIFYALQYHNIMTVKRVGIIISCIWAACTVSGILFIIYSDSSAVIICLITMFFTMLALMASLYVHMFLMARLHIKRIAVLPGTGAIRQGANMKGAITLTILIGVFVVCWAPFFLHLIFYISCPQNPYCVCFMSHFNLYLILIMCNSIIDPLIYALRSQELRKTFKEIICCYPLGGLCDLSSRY
human MC3R, sequence (P41968 whole entry): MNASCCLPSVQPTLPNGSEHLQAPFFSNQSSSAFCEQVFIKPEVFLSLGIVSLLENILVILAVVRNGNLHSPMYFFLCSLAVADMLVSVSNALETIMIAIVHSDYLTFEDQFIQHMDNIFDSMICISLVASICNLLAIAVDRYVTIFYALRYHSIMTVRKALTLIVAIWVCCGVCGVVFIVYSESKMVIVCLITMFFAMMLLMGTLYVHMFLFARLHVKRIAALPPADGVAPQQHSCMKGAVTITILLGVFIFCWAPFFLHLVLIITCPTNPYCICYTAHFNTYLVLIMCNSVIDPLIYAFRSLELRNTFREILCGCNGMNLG

% max activation (human MC3R) [%] | cAMP EC50 (human MC3R) [nM] | % max activation (human MC4R receptor [1]) [%] | cAMP EC50 (human MC4R receptor [1]) [nM] | MC4R selectivity vs MC1R (human MC4R receptor [2]) | MC4R selectivity vs MC3R (human MC4R receptor [2]) | Binder
16 | 117 | 95 | 72 | 2.9 | 1.63 | Ac-RC[Aib]R[dF][Cit][dW]C-NH2 (disulfide 2-8) [CTX-1271]
55 | 27 | 68 | 13 | 0.26 | 2.14 | Ac-R[Nle]CR[dTyr(4-OMe)″]R[dW]C-NH2 (disulfide 3-8; SMILES CCCC[C@H](NC(=O)[C@H](CCCNC(=N)N)NC(C)=O)C(=O)N[C@H]1CSSC[C@@H](C(N)=O)NC(=O)[C@@H](Cc2c[nH]c3ccccc23)NC(=O)[C@H](CCCNC(=N)N)NC(=O)[C@@H](Cc2ccc(OC)cc2)NC(=O)[C@H](CCCNC(=N)N)NC1=O) [CTX-1615]
7.8 | 719 | 55 | 5860 | 0.03 | 0.12 | Ac-RC[dA]R[dF][dR][dW]C-NH2 (disulfide 2-8; SMILES CC(=O)N[C@@H](CCCNC(=N)N)C(=O)N[C@H]1CSSC[C@@H](C(N)=O)NC(=O)[C@@H](Cc2c[nH]c3ccccc23)NC(=O)[C@@H](CCCNC(=N)N)NC(=O)[C@@H](Cc2ccccc2)NC(=O)[C@H](CCCNC(=N)N)NC(=O)[C@@H](C)NC1=O) [CTX-1283]
0.9 | 671 | 5.3 | 750 | 0.21 | 0.9 | Ac-RC[dA]R[dNMeF]R[dW]C-NH2 (disulfide 2-8; SMILES CC(=O)N[C@@H](CCCNC(=N)N)C(=O)N[C@H]1CSSC[C@@H](C(N)=O)NC(=O)[C@@H](Cc2c[nH]c3ccccc23)NC(=O)[C@H](CCCNC(=N)N)NC(=O)[C@@H](Cc2ccccc2)N(C)C(=O)[C@H](CCCNC(=N)N)NC(=O)[C@@H](C)NC1=O) [CTX-1272]
 | > 10000 | 58 | 142 | > 70 | > 70 | Ac-RC[Aib][Cit][dTyr(4-OMe)″]R[dW]C-NH2 (disulfide 2-8) [CTX-1600]
28 | 7.5 | 60 | 31 | 0.05 | 0.24 | Ac-RC[dA]R[dPhe(4-Br)]R[dF]C-NH2 (disulfide 2-8; SMILES CC(=O)N[C@@H](CCCNC(=N)N)C(=O)N[C@H]1CSSC[C@@H](C(N)=O)NC(=O)[C@@H](Cc2ccccc2)NC(=O)[C@H](CCCNC(=N)N)NC(=O)[C@@H](Cc2ccc(Br)cc2)NC(=O)[C@H](CCCNC(=N)N)NC(=O)[C@@H](C)NC1=O) [CTX-1255]
28 | 3.2 | 41 | 1.7 | 0.08 | 1.89 | Ac-R[Nle]CR[dTyr(4-OMe)″]RWC-NH2 (disulfide 3-8; SMILES CCCC[C@H](NC(=O)[C@H](CCCNC(=N)N)NC(C)=O)C(=O)N[C@H]1CSSC[C@@H](C(N)=O)NC(=O)[C@H](Cc2c[nH]c3ccccc23)NC(=O)[C@H](CCCNC(=N)N)NC(=O)[C@@H](Cc2ccc(OC)cc2)NC(=O)[C@H](CCCNC(=N)N)NC1=O) [CTX-1614]
1 | 29 | 1.4 | 12 |  | 2.45 | Ac-RC[dA]P[d2Nal]RWC-NH2 (disulfide 2-8; SMILES CC(=O)N[C@@H](CCCNC(=N)N)C(=O)N[C@H]1CSSC[C@@H](C(N)=O)NC(=O)[C@H](Cc2c[nH]c3ccccc23)NC(=O)[C@H](CCCNC(=N)N)NC(=O)[C@@H](Cc2ccc3ccccc3c2)NC(=O)[C@@H]2CCCN2C(=O)[C@@H](C)NC1=O) [CTX-2203]
20 | 43 | 79 | 72 | 0.83 | 0.61 | Ac-RC[dA]R[d(αMeF)]R[dW]C-NH2 (disulfide 2-8; SMILES CC(=O)N[C@@H](CCCNC(=N)N)C(=O)N[C@H]1CSSC[C@@H](C(N)=O)NC(=O)[C@@H](Cc2c[nH]c3ccccc23)NC(=O)[C@H](CCCNC(=N)N)NC(=O)[C@@](C)(Cc2ccccc2)NC(=O)[C@H](CCCNC(=N)N)NC(=O)[C@@H](C)NC1=O) [CTX-1279]
4.2 | 545 | 72 | 1420 | 0.14 | 0.38 | Ac-RC[dA]R[dF][dR]WC-NH2 (disulfide 2-8; SMILES CC(=O)N[C@@H](CCCNC(=N)N)C(=O)N[C@H]1CSSC[C@@H](C(N)=O)NC(=O)[C@H](Cc2c[nH]c3ccccc23)NC(=O)[C@@H](CCCNC(=N)N)NC(=O)[C@@H](Cc2ccccc2)NC(=O)[C@H](CCCNC(=N)N)NC(=O)[C@@H](C)NC1=O) [CTX-1282]
27 | 146 | 70 | 1250 | 0.01 | 0.12 | Ac-RC[dA]R[dPhe(4-Br)]R[Tic]C-NH2 (disulfide 2-8) [CTX-1259]
5.5 | 9.2 | 22 | 4.2 | 0.26 | 2.19 | Ac-RC[dA]R[dPhe(4-Br)]R[d2Nal]C-NH2 (disulfide 2-8; SMILES CC(=O)N[C@@H](CCCNC(=N)N)C(=O)N[C@H]1CSSC[C@@H](C(N)=O)NC(=O)[C@@H](Cc2ccc3ccccc3c2)NC(=O)[C@H](CCCNC(=N)N)NC(=O)[C@@H](Cc2ccc(Br)cc2)NC(=O)[C@H](CCCNC(=N)N)NC(=O)[C@@H](C)NC1=O) [CTX-1254]
17 | 592 | 29 | 7240 | 0.003 | 0.08 | Ac-RC[dA]R[dPhe(4-Br)]R[dTic]C-NH2 (disulfide 2-8) [CTX-1256]
22 | 52 | 104 | 44 | 0.28 | 1.18 | Ac-CGR[dTyr(4-OMe)]RFC-NH2 (disulfide 1-7; SMILES COc1ccc(C[C@H]2NC(=O)[C@H](CCCNC(=N)N)NC(=O)CNC(=O)[C@@H](NC(C)=O)CSSC[C@@H](C(N)=O)NC(=O)[C@H](Cc3ccccc3)NC(=O)[C@H](CCCNC(=N)N)NC2=O)cc1) [CTX-1641]
0.2 | 11 | 13 | 58 |  | 0.19 | Ac-RC[dA]P[dPhe(4-Br)]RWC-NH2 (disulfide 2-8; SMILES CC(=O)N[C@@H](CCCNC(=N)N)C(=O)N[C@H]1CSSC[C@@H](C(N)=O)NC(=O)[C@H](Cc2c[nH]c3ccccc23)NC(=O)[C@H](CCCNC(=N)N)NC(=O)[C@@H](Cc2ccc(Br)cc2)NC(=O)[C@@H]2CCCN2C(=O)[C@@H](C)NC1=O) [CTX-2204]
13 | 239 | 38 | 4930 | 0.01 | 0.05 | Ac-RC[dA]R[dPhe(4-Br)]R[dA]C-NH2 (disulfide 2-8; SMILES CC(=O)N[C@@H](CCCNC(=N)N)C(=O)N[C@H]1CSSC[C@@H](C(N)=O)NC(=O)[C@@H](C)NC(=O)[C@H](CCCNC(=N)N)NC(=O)[C@@H](Cc2ccc(Br)cc2)NC(=O)[C@H](CCCNC(=N)N)NC(=O)[C@@H](C)NC1=O) [CTX-1260]
2.6 | 541 | 4 | 438 | 0.1 | 1.24 | Ac-RC[dA]R[dDip]R[dW]C-NH2 (disulfide 2-8) [CTX-1280]
3.7 | 4780 | 32 | 7430 | 0.05 | 0.64 | Ac-RC[dA]R[dTic]R[dW]C-NH2 (disulfide 2-8) [CTX-1273]
5.4 | 164 | 77 | 1400 | 0.19 | 0.12 | Ac-RC[dA]R[dW]RWC-NH2 (disulfide 2-8; SMILES CC(=O)N[C@@H](CCCNC(=N)N)C(=O)N[C@H]1CSSC[C@@H](C(N)=O)NC(=O)[C@H](Cc2c[nH]c3ccccc23)NC(=O)[C@H](CCCNC(=N)N)NC(=O)[C@@H](Cc2c[nH]c3ccccc23)NC(=O)[C@H](CCCNC(=N)N)NC(=O)[C@@H](C)NC1=O) [CTX-1274]
27 | 10 | 100 | 3.4 | 3.72 | 3.09 | Ac-CGR[dPhe(4-Br)]RFC-NH2 (disulfide 1-7) [CTX-1640]
